The source of these data is patent US20110105397A1, “METHOD FOR TREATING HEART FAILURE WITH STRESSCOPIN-LIKE PEPTIDES” (priority 2009, published 2011).

Where no end group is shown, it is not given here. The star is where a group is joined. Succinimide(1-Et,3-yl) = CCN1C(=O)CC(*)C1=O Bounds are passed on as bounds.

T1: human corticotrophin releasing hormone receptor type 2 (CRHR2) (human, UniProt Q13324 1-411)
T1 sequence (looked up): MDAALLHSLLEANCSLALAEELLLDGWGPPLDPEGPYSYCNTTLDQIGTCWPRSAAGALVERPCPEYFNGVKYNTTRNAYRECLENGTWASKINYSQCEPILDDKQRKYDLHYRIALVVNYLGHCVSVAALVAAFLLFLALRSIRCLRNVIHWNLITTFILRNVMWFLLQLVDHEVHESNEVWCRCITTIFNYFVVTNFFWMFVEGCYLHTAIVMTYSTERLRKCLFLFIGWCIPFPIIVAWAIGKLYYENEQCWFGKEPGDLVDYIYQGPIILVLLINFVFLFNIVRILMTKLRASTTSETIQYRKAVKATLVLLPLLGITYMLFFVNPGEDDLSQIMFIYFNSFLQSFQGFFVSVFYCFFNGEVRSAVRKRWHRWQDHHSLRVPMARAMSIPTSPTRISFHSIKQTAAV

B1: Cys-variant of stresscopin peptide with N-Ethylsuccinimide (NES) reactive group SEQ ID NO: 53 (peptide)
peptide: TKFTLSLDVPTNIMNLC(Succinimide(1-Et,3-yl))FNIAKAKNLRAQAAANAHLMAQI-NH2
modifications: N-terminus assumed
SMILES: CC[C@H](C)[C@H](NC(=O)[C@H](CCC(N)=O)NC(=O)[C@H](C)NC(=O)[C@H](CCSC)NC(=O)[C@H](CC(C)C)NC(=O)[C@H](Cc1c[nH]cn1)NC(=O)[C@H](C)NC(=O)[C@H](CC(N)=O)NC(=O)[C@H](C)NC(=O)[C@H](C)NC(=O)[C@H](C)NC(=O)[C@H](CCC(N)=O)NC(=O)[C@H](C)NC(=O)[C@H](CCCNC(=N)N)NC(=O)[C@H](CC(C)C)NC(=O)[C@H](CC(N)=O)NC(=O)[C@H](CCCCN)NC(=O)[C@H](C)NC(=O)[C@H](CCCCN)NC(=O)[C@H](C)NC(=O)[C@@H](NC(=O)[C@H](CC(N)=O)NC(=O)[C@H](Cc1ccccc1)NC(=O)[C@H](CSC1CC(=O)N(CC)C1=O)NC(=O)[C@H](CC(C)C)NC(=O)[C@H](CC(N)=O)NC(=O)[C@H](CCSC)NC(=O)[C@@H](NC(=O)[C@H](CC(N)=O)NC(=O)[C@@H](NC(=O)[C@@H]1CCCN1C(=O)[C@@H](NC(=O)[C@H](CC(=O)O)NC(=O)[C@H](CC(C)C)NC(=O)[C@H](CO)NC(=O)[C@H](CC(C)C)NC(=O)[C@@H](NC(=O)[C@H](Cc1ccccc1)NC(=O)[C@H](CCCCN)NC(=O)[C@@H](N)[C@@H](C)O)[C@@H](C)O)C(C)C)[C@@H](C)O)[C@@H](C)CC)[C@@H](C)CC)C(N)=O
B2: Cys-variant of stresscopin peptide with N-Ethylsuccinimide (NES) reactive group SEQ ID NO: 52 (peptide)
peptide: TKFTLSLDVPTNIMNLLFC(Succinimide(1-Et,3-yl))IAKAKNLRAQAAANAHLMAQI-NH2
modifications: N-terminus assumed
SMILES: CC[C@H](C)[C@H](NC(=O)[C@H](CCC(N)=O)NC(=O)[C@H](C)NC(=O)[C@H](CCSC)NC(=O)[C@H](CC(C)C)NC(=O)[C@H](Cc1c[nH]cn1)NC(=O)[C@H](C)NC(=O)[C@H](CC(N)=O)NC(=O)[C@H](C)NC(=O)[C@H](C)NC(=O)[C@H](C)NC(=O)[C@H](CCC(N)=O)NC(=O)[C@H](C)NC(=O)[C@H](CCCNC(=N)N)NC(=O)[C@H](CC(C)C)NC(=O)[C@H](CC(N)=O)NC(=O)[C@H](CCCCN)NC(=O)[C@H](C)NC(=O)[C@H](CCCCN)NC(=O)[C@H](C)NC(=O)[C@@H](NC(=O)[C@H](CSC1CC(=O)N(CC)C1=O)NC(=O)[C@H](Cc1ccccc1)NC(=O)[C@H](CC(C)C)NC(=O)[C@H](CC(C)C)NC(=O)[C@H](CC(N)=O)NC(=O)[C@H](CCSC)NC(=O)[C@@H](NC(=O)[C@H](CC(N)=O)NC(=O)[C@@H](NC(=O)[C@@H]1CCCN1C(=O)[C@@H](NC(=O)[C@H](CC(=O)O)NC(=O)[C@H](CC(C)C)NC(=O)[C@H](CO)NC(=O)[C@H](CC(C)C)NC(=O)[C@@H](NC(=O)[C@H](Cc1ccccc1)NC(=O)[C@H](CCCCN)NC(=O)[C@@H](N)[C@@H](C)O)[C@@H](C)O)C(C)C)[C@@H](C)O)[C@@H](C)CC)[C@@H](C)CC)C(N)=O
B3: Cys-variant of stresscopin peptide with N-Ethylsuccinimide (NES) reactive group SEQ ID NO: 54 (peptide)
peptide: TKFTLSLDVPTNIMNC(Succinimide(1-Et,3-yl))LFNIAKAKNLRAQAAANAHLMAQI-NH2
modifications: N-terminus assumed
SMILES: CC[C@H](C)[C@H](NC(=O)[C@H](CCC(N)=O)NC(=O)[C@H](C)NC(=O)[C@H](CCSC)NC(=O)[C@H](CC(C)C)NC(=O)[C@H](Cc1c[nH]cn1)NC(=O)[C@H](C)NC(=O)[C@H](CC(N)=O)NC(=O)[C@H](C)NC(=O)[C@H](C)NC(=O)[C@H](C)NC(=O)[C@H](CCC(N)=O)NC(=O)[C@H](C)NC(=O)[C@H](CCCNC(=N)N)NC(=O)[C@H](CC(C)C)NC(=O)[C@H](CC(N)=O)NC(=O)[C@H](CCCCN)NC(=O)[C@H](C)NC(=O)[C@H](CCCCN)NC(=O)[C@H](C)NC(=O)[C@@H](NC(=O)[C@H](CC(N)=O)NC(=O)[C@H](Cc1ccccc1)NC(=O)[C@H](CC(C)C)NC(=O)[C@H](CSC1CC(=O)N(CC)C1=O)NC(=O)[C@H](CC(N)=O)NC(=O)[C@H](CCSC)NC(=O)[C@@H](NC(=O)[C@H](CC(N)=O)NC(=O)[C@@H](NC(=O)[C@@H]1CCCN1C(=O)[C@@H](NC(=O)[C@H](CC(=O)O)NC(=O)[C@H](CC(C)C)NC(=O)[C@H](CO)NC(=O)[C@H](CC(C)C)NC(=O)[C@@H](NC(=O)[C@H](Cc1ccccc1)NC(=O)[C@H](CCCCN)NC(=O)[C@@H](N)[C@@H](C)O)[C@@H](C)O)C(C)C)[C@@H](C)O)[C@@H](C)CC)[C@@H](C)CC)C(N)=O

The target in the assay is T1, human corticotrophin releasing hormone …. As to the kind of experiment: cell-based or functional assay.
Regarding TKCTLSLDVPTNIMNLLFNIAKAKNLRAQAAANAHLMAQI-NH2 [Cys-variant stresscopin-like peptide SEQ ID NO: 4], the “Log DR” value turned out to be 1.03 log10 and the pA50 was 8.65 -log10(M).
In the case of TKFTLSLDVPCNIMNLLFNIAKAKNLRAQAAANAHLMAQI-NH2 [Cys-variant stresscopin-like peptide SEQ ID NO: 12], the “Log DR” value worked out at 1.72 log10 and the pA50 is 7.86 -log10(M).
TKFTLSLDCPTNIMNLLFNIAKAKNLRAQAAANAHLMAQI-NH2 [Cys-variant stresscopin-like peptide SEQ ID NO: 10]: the “Log DR” value was found to be 1.3 log10 and the pA50 was 8.28 -log10(M).
The like results for B1 were, in that order, roughly 2.22 log10 and ~7.25 -log10(M).
The like results for CKFTLSLDVPTNIMNLLFNIAKAKNLRAQAAANAHLMAQI-NH2 [Cys-variant stresscopin-like peptide SEQ ID NO: 2] were, in that order, 0.72 log10 and 8.97 -log10(M).
The like results for TCFTLSLDVPTNIMNLLFNIAKAKNLRAQAAANAHLMAQI-NH2 [Cys-variant stresscopin-like peptide SEQ ID NO: 3] were, in that order, 0.72 log10 and 8.97 -log10(M).
Consider TKFCLSLDVPTNIMNLLFNIAKAKNLRAQAAANAHLMAQI-NH2 [Cys-variant stresscopin-like peptide SEQ ID NO: 5], for which the “Log DR” value was found to be 0.76 log10 and the pA50 is 8.93 -log10(M).
The like results for TKFTLCLDVPTNIMNLLFNIAKAKNLRAQAAANAHLMAQI-NH2 [Cys-variant stresscopin-like peptide SEQ ID NO: 7] were, in that order, 2.08 log10 and 7.6 -log10(M).
The like results for TKFTCSLDVPTNIMNLLFNIAKAKNLRAQAAANAHLMAQI-NH2 [Cys-variant stresscopin-like peptide SEQ ID NO: 6] were, in that order, 0.61 log10 and 9.07 -log10(M).
The like results for B2 were, in that order, 0.05 log10 and 9.42 -log10(M).
For the molecule TKFTLSLCVPTNIMNLLFNIAKAKNLRAQAAANAHLMAQI-NH2 [Cys-variant stresscopin-like peptide SEQ ID NO: 9], the “Log DR” value came out at 1.89 log10 and the pA50 is 7.8 -log10(M).
The like results for TKFTLSCDVPTNIMNLLFNIAKAKNLRAQAAANAHLMAQI-NH2 [Cys-variant stresscopin-like peptide SEQ ID NO: 8] were, in that order, 2.86 log10 and ~6.82 -log10(M).
The like results for CKFTLSLDVPTNIMNLLFNIAKAKNLRAQAAANAHLMAQI (NES-PEG (about 20 kDa) on Cys 1; C-terminal amide (-NH2)) [Pegylated Cys-variant stresscopin-like peptide with NES linker and PEG about 20 kDa SEQ ID NO: 55] were, in that order, roughly 1.61 log10 and ~7.93 -log10(M).
Turning to TKFTLSLCVPTNIMNLLFNIAKAKNLRAQAAANAHLMAQI (NES-PEG (about 20 kDa) on Cys 8; C-terminal amide (-NH2)) [Pegylated Cys-variant stresscopin-like peptide with NES linker and PEG about 20 kDa SEQ ID NO: 62], the “Log DR” value is greater than 3.48 log10 and the pA50 is ~6.06 -log10(M).
The like results for TKFTCSLDVPTNIMNLLFNIAKAKNLRAQAAANAHLMAQI (NES-PEG (about 20 kDa) on Cys 5; C-terminal amide (-NH2)) [Pegylated Cys-variant stresscopin-like peptide with NES linker and PEG about 20 kDa SEQ ID NO: 59] were, in that order, roughly 2.32 log10 and ~7.22 -log10(M).
As for TKCTLSLDVPTNIMNLLFNIAKAKNLRAQAAANAHLMAQI (NES-PEG (about 20 kDa) on Cys 3; C-terminal amide (-NH2)) [Pegylated Cys-variant stresscopin-like peptide with NES linker and PEG about 20 kDa SEQ ID NO: 57], the “Log DR” value was roughly 1.9 log10 and the pA50 was ~7.64 -log10(M).
The like results for TKFTLSLDVCTNIMNLLFNIAKAKNLRAQAAANAHLMAQI (NES-PEG (about 20 kDa) on Cys 10; C-terminal amide (-NH2)) [Pegylated Cys-variant stresscopin-like peptide with NES linker and PEG about 20 kDa SEQ ID NO: 64] were, in that order, roughly 2.59 log10 and ~6.98 -log10(M).
The like results for TKFTLSLDVPCNIMNLLFNIAKAKNLRAQAAANAHLMAQI (NES-PEG (about 20 kDa) on Cys 11; C-terminal amide (-NH2)) [Pegylated Cys-variant stresscopin-like peptide with NES linker and PEG about 20 kDa SEQ ID NO: 65] were, in that order, roughly 2.75 log10 and ~6.82 -log10(M).
The like results for TKFTLSCDVPTNIMNLLFNIAKAKNLRAQAAANAHLMAQI (NES-PEG (about 20 kDa) on Cys 7; C-terminal amide (-NH2)) [Pegylated Cys-variant stresscopin-like peptide with NES linker and PEG about 20 kDa SEQ ID NO: 61] were, in that order, greater than 3.32 log10 and ~6.22 -log10(M).
On to TKFTLSLDCPTNIMNLLFNIAKAKNLRAQAAANAHLMAQI (NES-PEG (about 20 kDa) on Cys 9; C-terminal amide (-NH2)) [Pegylated Cys-variant stresscopin-like peptide with NES linker and PEG about 20 kDa SEQ ID NO: 63], for which the “Log DR” value was roughly 2.12 log10 and the pA50 is ~7.45 -log10(M).
The like results for TCFTLSLDVPTNIMNLLFNIAKAKNLRAQAAANAHLMAQI (NES-PEG (about 20 kDa) on Cys 2; C-terminal amide (-NH2)) [Pegylated Cys-variant stresscopin-like peptide with NES linker and PEG about 20 kDa SEQ ID NO: 56] were, in that order, roughly 2.34 log10 and ~7.2 -log10(M).
The like results for TKFCLSLDVPTNIMNLLFNIAKAKNLRAQAAANAHLMAQI (NES-PEG (about 20 kDa) on Cys 4; C-terminal amide (-NH2)) [Pegylated Cys-variant stresscopin-like peptide with NES linker and PEG about 20 kDa SEQ ID NO: 58] were, in that order, roughly 2.4 log10 and ~7.14 -log10(M).
The like results for TKFTLCLDVPTNIMNLLFNIAKAKNLRAQAAANAHLMAQI (NES-PEG (about 20 kDa) on Cys 6; C-terminal amide (-NH2)) [Pegylated Cys-variant stresscopin-like peptide with NES linker and PEG about 20 kDa SEQ ID NO: 60] were, in that order, greater than 3.22 log10 and ~6.32 -log10(M).
On to B3, for which the “Log DR” value is -0.08 log10 and the pA50 was 9.55 -log10(M).
The like results for TKFTLSLDVCTNIMNLLFNIAKAKNLRAQAAANAHLMAQI-NH2 [Cys-variant stresscopin-like peptide SEQ ID NO: 11] were, in that order, 0.82 log10 and 8.76 -log10(M).
